Data reported in US20240368259A1 (ONENA MEDICINES S L, published 2024).
Where a chain is given by its changes, count along the chain named.

T1: 1189 IMM (human LEFTY1-Rabbit Fc fusion protein) (human)
T1 construct: also called Lefty IMM; Lefty Imm
T1 chain: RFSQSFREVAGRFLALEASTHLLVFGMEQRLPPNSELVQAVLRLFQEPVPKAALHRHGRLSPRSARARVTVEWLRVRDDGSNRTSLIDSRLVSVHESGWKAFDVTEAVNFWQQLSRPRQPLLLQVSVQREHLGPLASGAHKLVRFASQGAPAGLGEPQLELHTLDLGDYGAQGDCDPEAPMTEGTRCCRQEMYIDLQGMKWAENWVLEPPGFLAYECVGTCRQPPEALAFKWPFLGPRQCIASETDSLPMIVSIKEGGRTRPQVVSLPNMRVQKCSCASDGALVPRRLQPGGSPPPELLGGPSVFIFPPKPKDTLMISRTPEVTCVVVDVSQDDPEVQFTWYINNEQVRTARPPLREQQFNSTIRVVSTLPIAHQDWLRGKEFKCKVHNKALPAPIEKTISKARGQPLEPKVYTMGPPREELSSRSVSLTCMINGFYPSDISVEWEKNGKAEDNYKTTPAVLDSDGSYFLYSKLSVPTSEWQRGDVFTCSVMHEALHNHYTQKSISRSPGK

T2: recombinant human LEFTY2 protein (R&D Systems, catalog number 746-LF-025) (human, UniProt O00292 78-366, limits assumed)
T2 construct: also called Lefty R&D; rhLefty2 protein
T2 sequence (looked up): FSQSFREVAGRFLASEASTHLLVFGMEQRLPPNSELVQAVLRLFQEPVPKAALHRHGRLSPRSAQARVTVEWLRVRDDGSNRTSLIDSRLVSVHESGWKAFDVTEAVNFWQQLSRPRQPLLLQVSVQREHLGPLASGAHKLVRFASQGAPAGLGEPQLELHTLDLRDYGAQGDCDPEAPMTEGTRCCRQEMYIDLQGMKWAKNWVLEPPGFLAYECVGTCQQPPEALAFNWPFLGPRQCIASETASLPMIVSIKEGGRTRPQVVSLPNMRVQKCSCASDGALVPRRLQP

T3: 1189 SCR1 (human LEFTY1-human Fc fusion protein) (human)
T3 construct: also called Lefty SCR; Lefty Scr
T3 chain: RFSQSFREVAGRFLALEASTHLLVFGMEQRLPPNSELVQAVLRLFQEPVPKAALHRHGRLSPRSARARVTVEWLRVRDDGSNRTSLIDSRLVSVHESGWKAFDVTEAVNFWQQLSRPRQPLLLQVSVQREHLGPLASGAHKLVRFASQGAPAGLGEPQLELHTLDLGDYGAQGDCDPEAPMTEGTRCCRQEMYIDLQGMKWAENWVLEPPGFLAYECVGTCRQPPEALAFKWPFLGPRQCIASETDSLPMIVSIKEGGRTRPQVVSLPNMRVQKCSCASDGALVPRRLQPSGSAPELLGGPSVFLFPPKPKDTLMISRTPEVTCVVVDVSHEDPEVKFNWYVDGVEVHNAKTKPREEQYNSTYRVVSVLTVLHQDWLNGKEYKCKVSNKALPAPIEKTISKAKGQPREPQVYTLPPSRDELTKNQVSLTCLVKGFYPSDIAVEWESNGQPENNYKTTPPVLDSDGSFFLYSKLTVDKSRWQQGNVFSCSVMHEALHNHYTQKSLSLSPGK

T4: BMPR2 on human breast cancer cells (PDX tumor cells, MDA-MB-231) (human, UniProt Q13873 27-1038)
T4 construct: whole, on cells
T4 sequence (looked up): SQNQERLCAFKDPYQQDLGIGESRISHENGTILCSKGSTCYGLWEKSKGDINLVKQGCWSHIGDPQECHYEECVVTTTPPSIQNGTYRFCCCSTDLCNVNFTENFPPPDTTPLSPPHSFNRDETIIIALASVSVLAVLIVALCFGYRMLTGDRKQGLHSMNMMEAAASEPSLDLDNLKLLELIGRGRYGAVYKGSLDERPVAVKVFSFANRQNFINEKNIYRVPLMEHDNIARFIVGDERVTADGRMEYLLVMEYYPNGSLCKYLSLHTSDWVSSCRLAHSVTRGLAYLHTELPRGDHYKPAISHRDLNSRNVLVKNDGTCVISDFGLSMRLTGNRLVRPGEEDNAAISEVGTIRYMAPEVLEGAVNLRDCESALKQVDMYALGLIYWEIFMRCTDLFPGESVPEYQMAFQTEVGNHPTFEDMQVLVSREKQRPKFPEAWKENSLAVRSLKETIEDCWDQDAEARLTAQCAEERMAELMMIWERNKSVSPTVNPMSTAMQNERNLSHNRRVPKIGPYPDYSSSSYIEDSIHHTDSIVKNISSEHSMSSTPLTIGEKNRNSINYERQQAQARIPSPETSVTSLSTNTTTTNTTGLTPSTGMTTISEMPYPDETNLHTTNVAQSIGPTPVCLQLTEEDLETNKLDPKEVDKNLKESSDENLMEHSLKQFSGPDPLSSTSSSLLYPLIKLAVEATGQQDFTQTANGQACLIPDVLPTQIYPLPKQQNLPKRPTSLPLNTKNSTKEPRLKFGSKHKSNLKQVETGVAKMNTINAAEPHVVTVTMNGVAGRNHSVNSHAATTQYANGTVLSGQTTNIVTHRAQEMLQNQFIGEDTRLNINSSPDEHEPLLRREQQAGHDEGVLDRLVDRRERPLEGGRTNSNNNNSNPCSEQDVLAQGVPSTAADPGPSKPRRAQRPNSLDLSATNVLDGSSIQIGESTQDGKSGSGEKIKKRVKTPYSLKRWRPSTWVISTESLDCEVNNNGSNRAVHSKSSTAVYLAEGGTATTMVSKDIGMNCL

T5: BMPR2 (BMP receptor, in mouse fibroblasts and mouse mammary cells) (mouse, UniProt O35607 27-1038)
T5 construct: whole, on cells; For the co-IP it came from cell lysate; also called BMP Type II receptor
T5 sequence (looked up): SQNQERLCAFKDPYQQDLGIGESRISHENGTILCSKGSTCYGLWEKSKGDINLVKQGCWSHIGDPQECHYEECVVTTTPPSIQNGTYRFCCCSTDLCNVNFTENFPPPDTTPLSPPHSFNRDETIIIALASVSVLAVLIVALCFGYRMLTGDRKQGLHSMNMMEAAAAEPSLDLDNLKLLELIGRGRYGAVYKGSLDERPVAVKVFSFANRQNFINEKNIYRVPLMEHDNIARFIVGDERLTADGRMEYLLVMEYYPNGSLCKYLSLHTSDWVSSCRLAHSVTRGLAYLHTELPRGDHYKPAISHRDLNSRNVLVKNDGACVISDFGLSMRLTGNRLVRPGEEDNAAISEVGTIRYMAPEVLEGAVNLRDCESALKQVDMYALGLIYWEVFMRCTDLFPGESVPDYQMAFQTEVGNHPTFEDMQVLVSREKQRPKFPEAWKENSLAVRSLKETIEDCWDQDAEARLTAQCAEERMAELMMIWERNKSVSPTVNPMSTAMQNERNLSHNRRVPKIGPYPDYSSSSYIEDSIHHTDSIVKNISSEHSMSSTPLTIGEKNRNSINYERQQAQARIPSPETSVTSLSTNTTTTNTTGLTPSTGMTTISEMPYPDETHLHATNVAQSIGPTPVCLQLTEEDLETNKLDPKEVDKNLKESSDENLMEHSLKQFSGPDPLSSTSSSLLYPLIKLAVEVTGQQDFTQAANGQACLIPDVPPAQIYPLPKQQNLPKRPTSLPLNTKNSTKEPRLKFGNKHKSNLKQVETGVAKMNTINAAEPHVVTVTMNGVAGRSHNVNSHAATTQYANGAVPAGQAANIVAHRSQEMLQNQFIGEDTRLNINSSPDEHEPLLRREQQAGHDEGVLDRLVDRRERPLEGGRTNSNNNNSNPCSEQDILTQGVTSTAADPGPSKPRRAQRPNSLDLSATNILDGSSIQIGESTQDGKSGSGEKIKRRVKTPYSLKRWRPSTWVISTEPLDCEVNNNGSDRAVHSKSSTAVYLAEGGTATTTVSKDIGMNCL

B1: SCBT anti-lefty antibody (Santa Cruz Biotechnology, catalog number sc-365845, mAb D6) (antibody, mouse IgG1, kappa)
heavy: QVQLQQSGAELVRPGASVKLSCKALGYTFADYEMHWVRQTPVHGLEWTGSIHPGSGGTAYDQRFKGKATLTADKSSSTAYMELSSLTSEDSAVYYCTFYDLDYWGQGTTLTVSSAKTTPPSVYPLAPGSAAQTNSMVTLGCLVKGYFPEPVTVTWNSGSLSSGVHTFPAVLQSDLYTLSSSVTVPSSTWPSETVTCNVAHPASSTKVDKKIVPRDCGCKPCICTVPEVSSVFIFPPKPKDVLTITLTPKVTCVVVDISKDDPEVQFSWFVDDVEVHTAQTQPREEQFNSTFRSVSELPIMHQDWLNGKEFKCRVNSAAFPAPIEKTISKTKGRPKAPQVYTIPPPKEQMAKDKVSLTCMITDFFPEDITVEWQWNGQPAENYKNTQPIMDTDGSYFVYSKLNVQKSNWEAGNTFTCSVLHEGLHNHHTEKSLSHSPGK
light: DILMTQAAPSISVTPGESVSISCRSSESLLHSNGNTYLYWFLQRPGQSPQLLIYRKSNLASGVPDRFSGSGSGTAFTLRISRVEAEDVGVYYCMQQLEYPLTFGGGTKLELKRADAAPTVSIFPPSSEQLTSGGASVVCFLNNFYPKDINVKWKIDGSERQNGVLNSWTDQDSKDSTYSMSSTLTLTKDEYERHNSYTCEATHKTSTSPIVKSFNRNEC
notes: The ELISA protocol prints the catalog number as sc-36584, the proliferation protocols as sc-365845; also called SCBT antibody; SCBT Ab
B2: BMP7 in human breast cancer PDX cells (ligand, UniProt P18075 293-431, looked up)
chain: STGSKQRSQNRSKTPKNQEALRMANVAENSSSDQRQACKKHELYVSFRDLGWQDWIIAPEGYAAYYCEGECAFPLNSYMNATNHAIVQTLVHFINPETVPKPCCAPTQLNAISVLYFDDSSNVILKKYRNMVVRACGCH
B3: BMP7 (R&D Systems 5666-BP) (ligand, mouse, UniProt P23359 292-430, looked up)
chain: B2 chain with S4G, N25S, E97D
B4: LEFTY1 (recombinant mouse Lefty1 protein, R&D Systems, catalog number 994-LF) (ligand, UniProt Q64280 78-368, looked up)
chain: FSQNLREVAGRFLVSETSTHLLVFGMEQRLPPNSELVQAVLRLFQEPVPRTALRRQKRLSPHSARARVTIEWLRFRDDGSNRTALIDSRLVSIHESGWKAFDVTEAVNFWQQLSRPRQPLLLQVSVQREHLGPGTWSSHKLVRFAAQGTPDGKGQGEPQLELHTLDLKDYGAQGNCDPEAPVTEGTRCCRQEMYLDLQGMKWAENWILEPPGFLTYECVGSCLQLPESLTSRWPFLGPRQCVASEMTSLPMIVSVKEGGRTRPQVVSLPNMRVQTCSCASDGALIPRRLQP
notes: Added to cells at 200 ng/ml (co-IP, SMAD assays)
B5: Lefty1 peptide PMIVSVKEGGRTRPQVVSLPNMRVQT (peptide)
peptide: PMIVSVKEGGRTRPQVVSLPNMRVQT

Key:
[1] = target: T1, 1189 IMM (human LEFTY1-Rabbit Fc fusion …); assay: ELISA, plate coated with 5 ug/ml protein, 5 ug/ml primary antibody, absorbance at 450 nm
[2] = target: T2, recombinant human LEFTY2 protein (R&D …); assay: as above
[3] = target: T3, 1189 SCR1 (human LEFTY1-human Fc fusion …); assay: as above
[4] = target: T4, BMPR2 on human breast cancer cells (PDX …); assay: proximity ligation assay on sorted PDX cells
[5] = target: T5, BMPR2 (BMP receptor, in mouse …); assay: proximity ligation assay in fibroblasts
LRP6 = target: T6, LRP6 (UniProt O88572 20-1613, limits assumed); assay: proximity ligation assay in fibroblasts
T6 construct: whole, on cells

[6] = target: B1; assay: competition ELISA: the peptide is added to the antibody on coated LEFTY proteins

T6 sequence (O88572 20-1613 limits assumed): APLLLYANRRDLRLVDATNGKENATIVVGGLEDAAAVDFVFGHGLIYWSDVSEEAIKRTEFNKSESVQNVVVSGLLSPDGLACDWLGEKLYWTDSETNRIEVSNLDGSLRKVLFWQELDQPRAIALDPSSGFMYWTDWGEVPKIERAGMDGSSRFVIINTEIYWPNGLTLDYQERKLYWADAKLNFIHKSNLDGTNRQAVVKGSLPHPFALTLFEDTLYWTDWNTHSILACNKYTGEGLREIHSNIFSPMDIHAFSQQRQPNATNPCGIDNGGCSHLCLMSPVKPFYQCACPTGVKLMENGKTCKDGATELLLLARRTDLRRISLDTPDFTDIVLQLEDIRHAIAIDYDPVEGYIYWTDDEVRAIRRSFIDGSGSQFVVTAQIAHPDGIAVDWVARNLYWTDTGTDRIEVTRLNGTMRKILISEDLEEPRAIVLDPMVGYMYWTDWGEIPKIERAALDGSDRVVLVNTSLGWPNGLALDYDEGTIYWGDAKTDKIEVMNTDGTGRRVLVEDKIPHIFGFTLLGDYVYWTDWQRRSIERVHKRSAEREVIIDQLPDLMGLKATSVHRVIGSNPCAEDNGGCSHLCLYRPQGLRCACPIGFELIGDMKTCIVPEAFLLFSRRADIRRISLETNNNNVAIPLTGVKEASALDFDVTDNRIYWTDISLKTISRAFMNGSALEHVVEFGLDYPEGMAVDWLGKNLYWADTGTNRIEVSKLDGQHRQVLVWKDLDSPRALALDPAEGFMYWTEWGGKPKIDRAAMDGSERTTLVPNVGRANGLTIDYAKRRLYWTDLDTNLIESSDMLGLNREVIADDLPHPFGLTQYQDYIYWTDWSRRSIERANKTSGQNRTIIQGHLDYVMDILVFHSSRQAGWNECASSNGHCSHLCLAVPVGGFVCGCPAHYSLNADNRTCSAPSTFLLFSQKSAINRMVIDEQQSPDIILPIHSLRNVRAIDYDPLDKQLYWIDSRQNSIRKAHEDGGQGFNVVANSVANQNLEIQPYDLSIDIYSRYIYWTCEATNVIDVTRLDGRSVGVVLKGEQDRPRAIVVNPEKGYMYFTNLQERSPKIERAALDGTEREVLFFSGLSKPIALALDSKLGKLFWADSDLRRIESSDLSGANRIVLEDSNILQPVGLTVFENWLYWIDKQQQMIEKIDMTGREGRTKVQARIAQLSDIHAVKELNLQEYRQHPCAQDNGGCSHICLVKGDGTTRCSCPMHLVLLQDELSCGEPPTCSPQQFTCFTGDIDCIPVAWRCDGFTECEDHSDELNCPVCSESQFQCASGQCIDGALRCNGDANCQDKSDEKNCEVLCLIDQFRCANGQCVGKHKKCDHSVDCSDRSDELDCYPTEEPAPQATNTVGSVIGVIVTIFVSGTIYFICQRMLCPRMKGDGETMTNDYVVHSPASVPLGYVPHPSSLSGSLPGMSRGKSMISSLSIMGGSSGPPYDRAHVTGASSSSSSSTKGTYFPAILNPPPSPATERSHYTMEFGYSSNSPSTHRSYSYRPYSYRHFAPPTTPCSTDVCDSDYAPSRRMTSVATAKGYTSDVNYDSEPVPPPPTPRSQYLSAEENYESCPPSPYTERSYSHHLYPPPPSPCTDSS

Binder: B1
binding result [1]: binds | binding result [2]: binds | binding result [3]: binds

Binder: B2
binding result [4]: binds

Binder: B3
binding result [5]: binds

Binder: B4
binding result (LRP6): no binding | binding result [5]: binds

Binder: B5
binding result [6]: binds
